A short description of assay [1]: In vitro sialylation of LNT by protein extracts, LST-a/-b quantified by LC-MS/MS. Particulars: 5 mM LNT, 10 mM CMP-Neu5Ac, 16 hours, LC-MS/MS; relative quantity; n.d.: not detectable. It is filed as biochemical. A digest of the protocol: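 E. coli BL21(DE3) crude extracts overexpressing sialyltransferases (IPTG 0.3 mM, 12–16 h at 30 °C) incubated 16 h with 5 mM LNT and 10 mM CMP-Neu5Ac in 50 mM Tris-HCl pH 7.5, 5 mM MgCl2. LST-a and LST-b measured by HILIC LC-MS/MS, MRM in ESI negative mode, against commercial standards.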

The nature of assay [2]: In vivo screening in E. coli #1363/#1730 with lactose as acceptor, sialyllactose identified by TLC. The following applies: 1.5 mM lactose, 72 to 96 hours, qualitative via TLC. It is filed as cell-based, Escherichia coli BL21(DE3). A digest of the protocol:
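E. coli BL21(DE3) #1363/#1730 expressing sialyltransferases were grown at 30 °C in mineral salts medium with 2% glucose and induced with 0.3 mM IPTG. After 1 h, 1.5 mM lactose was added, plus 1.5 mM sialic acid for #1730, and incubation ran 72–96 h. Cell lysates were analysed by silica TLC with thymol staining.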

B1: SiaT43: sialyltransferase of Bibersteinia trehalosi USDA-ARS-USMARC-189, acc. AHG84654, SEQ ID NO: 18 (protein, listed as Bibersteinia trehalosi)
chain: MEFCKMATTQKICVYLDYATIPSLNYILHFAQHFEDQETIRLFGLSRFHIPESVIQRYPKGVVQFYPNQEKDFSALLLALKNILIEVKQQQRKCEIELHLNLFHYQLLLLPFLSLYLDTQDYCHLTLKFYDDGSEAISALQELALAPDLAAQIQFEKQQFDELVVKKSFKLSLLSRYFWGKLFESEYIWFNQAILQKAELQILKQEISSSRQMDFAIYQQMSDEQKQLVLEILNIDLNKVAYLKQLMENQPSFLFLGTTLFNITQETKTWLMQMHVDLIQQYCLPSGQFFNNKAGYLCFYKGHPNEKEMNQMILSQFKNLIALPDDIPLEILLLLGVIPSKVGGFASSALFNFTPAQIENIIFFTPRYFEKDNRLHATQYRLMQGLIELGYLDAEKSVTHFEIMQLLTKE
For B1, the “Relative efficacy of sialyltransferases regarding in-vitro production of sialyllacto-N-tetraoses: LST-a” value (“Relative efficacy … LST-a” for short) in assay [1] is 21. Besides, the “Production of sialyllactose in-vivo” value in assay [2] is recorded as 3′-SL.

B2: SiaT39: sialyltransferase of Alistipes shahii WAL 8301, acc. YP_007816735, SEQ ID NO: 23 (protein, listed as Alistipes shahii)
chain: MDDGTPSVSINGGTDFLSLDHLARSGKITVNAPAPWSVTLAPENYGQDEKPDWLTLSAEEGPAGYSEIDVTFAENPGPARSASLLFSCDGKTLAFTVSQSAGGTGFDAPDYYFYISVGTMPTLYSGLHLLSHDKPSYVSYERASTFDAAEFPDRAFVYPVADPTGHATNEELRAMSEAMKRRILEINAEDPTAVFGLWVDDLRCRLGYDWFVAQGIDSARVKVTMLSDGTATYNNFHNYFGDAATAEQNWNDYAAEVEALDWNHGGRYPETRAPEEFASYTWPYYLSTRPDYRLMLQNSSLMESSCPFIADRLAAMKMESVQPYELLTALPEASKQQFYRMAKFDYARFAGLFDLSPKKNLIIIGTSHSSAASEQQQAAYVERIIQQYGSDYDIFFKPHPADSSSAGYPDRFEGLTLLPGQMPFEIFVWALLDKIDMIGGYPSTTFISVPLDKVGFLFAADADGLVRPLNILFRDAANVEWIQ
B2: the “Relative efficacy … LST-a” value in assay [1] stood at 4. In addition, the “Production of sialyllactose in-vivo” value in assay [2] was 3′-SL.

B3: SiaT42: sialyltransferase of Actinobacillus capsulatus DSM 19761, acc. WP_018652686, SEQ ID NO: 25 (protein, listed as Actinobacillus capsulatus)
chain: MERIPQLQAVDIYIDFATIPSLSYFLHFLKHKHDHQRLRLFSLARFEMPQTVIEQYEGIIQFSRNVEHNVEQLLEQLQTILSQEGKQFELHLHLNLFHSFEMFLNLSPTYTKYKEKISKIVLHLYDDGSEGVMKQYQLQQSNSLAQDLASTKASLVSLFKNGEGAFSQIDLIRYVWNAVLETHYYLLSDHFLAHEKLQPLKIELGHYQLLNLSAYQYLSSEDLLWLKQILKIDAELESLMHKLTTQPVYFFSGTTFFNISFEDKQRLANIHAILIREHLDPNSQLFIGEPYLFVFKGHPNSPEINQALREYYPNAIFLPENIPFEILTLLGFSPQKIGGFASTIHVNSEQSKLAKLFFLTSTDEQERNRSDGYIKQYALAQAMLEMQLVSQEQVYYCSLSS
For the molecule B3, the “Relative efficacy … LST-a” value in assay [1] is listed as 3. For the same molecule, in assay [2], the “Production of sialyllactose in-vivo” value is 3′-SL.

B4: SiaT41: sialyltransferase of Actinobacillus suis ATCC 33415, acc. AIJ32009, SEQ ID NO: 24 (protein, listed as Actinobacillus suis)
chain: MERTPQLQAVDIYIDFATIPSLSYFLHFLKHKHDDQRLRLFSLARFEMPQTLIEQYEGIIQFSRNVEHNVEPLLEQLQTILSQEGKQFELHLHLNLFHSFEMFLNLSPTYTQYKEKISKIVLHLYDDGSEGVMKQYQLQKSSSLVQDLAATKASLVSLFENGEGSFSQIDLIRYVWNAVLETHYYLLSDHFLLDEKLQPLKAELGHYQLLNLSAYQYLSSEDLLWLKQILKIDTELESLMQKLTAQPVYFFSGTTFFNISFEDKQRLANIHAILIREHLDPNSQLFIGEPYLFVFKGHPNSPEINQALREYYPNVIFLPENIPFEILTLLGFSPQKIGGFASTIHVNSEQSKLAKLFFLTSTDEQERQLSDGYIKQYALAQAMLEMQLVSQEQVYYCSLSS
Take B4: the “Relative efficacy … LST-a” value in assay [1] stood at 3. For the same molecule, the “Production of sialyllactose in-vivo” value in assay [2] is 3′-SL.

B5: SiaT51: sialyltransferase of Photobacterium damselae subsp. damselae CIP 102761, acc. EEZ40509, SEQ ID NO: 32 (protein, listed as Photobacterium damsela)
chain: MKKILTVLSIFILSACNSDNTSLKETVSSNSADVVETETYQLTPIDAPSSFLSHSWEQTCGTPILNESDKQAISFDFVAPELKQDEKYCFTFKGITGDHRYITNTTLTVVAPTLEVYIDHASLPSLQQLIHIIQAKDEYPSNQRFVSWKRVTVDADNANKLNIHTYPLKGNNTSPEMVAAIDEYAQSKNRLNIEFYTNTAHVFNNLPPIIQPLYNNEKVKISHISLYDDGSSEYVSLYQWKDTPNKIETLEGEVSLLANYLAGTSPDAPKGMGNRYNWHKLYDTDYYFLREDYLDVEANLHDLRDYLGSSAKQMPWDEFAKLSDSQQTLFLDIVGFDKEQLQQQYSQSPLPNFIFTGTTTWAGGETKEYYAQQQVNVINNAINETSPYYLGKDYDLFFKGHPAGGVINDIILGSFPDMINIPAKISFEVLMMTDMLPDTVAGIASSLYFTIPADKVNFIVFTSSDTITDREEALKSPLVQVMLTLGIVKEKDVLFWADLPDCSSGVCIDK
Turning to B5, the “Relative efficacy of sialyltransferases regarding in-vitro production of sialyllacto-N-tetraoses: LST-b” value in assay [1] is 10. In addition, in assay [2], the “Production of sialyllactose in-vivo” value was 6′-SL.

B6: SiaT73: sialyltransferase of Haemophilus somnus 2336, acc. ACA31170, SEQ ID NO: 20 (protein, listed as Haemophilus somnus)
chain: MKYNIKIKAIVIVSSLRMLLIFLMLNKYHLDEVLFVFNEGFELHKKYKIKHYVAIKKKITKFWRLYYKLYFYRFKIDRIPVYGADHLGWTDYFLKYFDFYLIEDGIANFSPKRYEINLTRNIPVFGFHKTVKKIYLTSLENVPSDIRHKVELISLEHLWKTRTAQEQHNILDFFAFNLDSLISLKMKKYILFTQCLSEDRVISEQEKIAIYQHIIKNYDERLLVIKPHPRETTDYQKYFENVFVYQDVVPSELFELLDVNFERVITLFSTAVFKYDRNIVDFYGTRIHDKIYQWFGDIKF
B6: in assay [1], the “Relative efficacy … LST-a” value is 15. Further, in assay [2], the “Production of sialyllactose in-vivo” value is 3′-SL.

B7: SiaT37: sialyltransferase of Campylobacter jejuni strain 81-176, acc. AAL09368, SEQ ID NO: 16 (protein, listed as Campylobacter jejuni)
chain: MKKVIIAGNGPSLKEIDYSRLPNDFDVFRCNQFYFEDKYYLGKKCKAVFYTPNFFFEQYYTLKHLIQNQEYETELIMCSNYNQAHLENENFVKTFYDYFPDAHLGYDFFKQLKEFNAYFKFHEIYFNQRITSGVYMCAVAIALGYKEIYLSGIDFYQNGSSYAFDTKQENLLKLAPDFKNDRSHYIGHSKNTDIKALEFLEKTYKIKLYCLCPNSLLANFIELAPNLNSNFIIQEKNNYTKDILIPSSEAYGKFSKNINFKKIKIKENVYYKLIKDLLRLPSDIKHYFKGK
B7: in assay [1], the “Relative efficacy … LST-a” value is recorded as 40. The “Production of sialyllactose in-vivo” value in assay [2] is on record as 3′-SL.

B8: SiaT32: sialyltransferase of Alistipes sp. AL-1, acc. WP_032134786, SEQ ID NO: 15 (protein, listed as Alistipes sp.)
chain: MALLSGTAACSDDEVSQNLIVINGGEHFLSLDGLARAGKISVLAPAPWRVTKAAGDTWFRLSATEGPAGYSEVELSLDENPGAARSAQLAFACGDAIVPFRLSQGALSAGYDSPDYYFYVTFGTMPTLYAGIHLLSHDKPGYVFYSRSKTFDPAEFPARAEVTTAADRTADATQAEMEAMAREMKRRILEINSADPTAVFGLYVDDLRCRIGYDWFVAQGIDSARVKVSMLSDGTGTYNNFYNYFGDAATAEQNWESYASEVEALDWNHGGRYPETRSLPEFESYTWPYYLSTRPDYRLVVQDGSLLESSCPFITEKLGEMEIESIQPYEMLSALPESSRKRFYDMAGFDYDKFAALFDASPKKNLIIIGTSHADDASARLQRDYVARIMEQYGAQYDVFFKPHPADTTSAGYETEFPGLTLLPGQMPFEIFVWSLIDRVDMIGGYPSTVFLTVPVDKVRFIFAADAASLVRPLNILFRDATDVEWMQ
Regarding B8, the “Relative efficacy … LST-a” value in assay [1] worked out at 64. The “Production of sialyllactose in-vivo” value in assay [2] is recorded as 3′-SL, 6′-SL.

B9: SiaT34: sialyltransferase of Pasteurella multocida PM70, acc. NC_002663, SEQ ID NO: 6 (protein, listed as Pasteurella multocida)
chain: MDKFAEHEIPKAVIVAGNGESLSQIDYRLLPKNYDVFRCNQFYFEERYFLGNKIKAVFFTPGVFLEQYYTLYHLKRNNEYFVDNVILSSFNHPTVDLEKSQKIQALFIDVINGYEKYLSKLTAFDVYLRYKELYENQRITSGVYMCAVAIAMGYTDIYLTGIDFYQASEENYAFDNKKPNIIRLLPDFRKEKTLFSYHSKDIDLEALSFLQQHYHVNFYSISPMSPLSKHFPIPTVEDDCETTFVAPLKENYINDILLPPHFVYEKLGVDKLAAALEHHHHHH
For B9, the “Relative efficacy … LST-a” value in assay [1] is listed as 2.34 × 10^3. The “Production of sialyllactose in-vivo” value in assay [2] is recorded as 3′-SL.

The values are drawn from patent US12692524B2, “Sialyltransferases and their use in producing sialylated oligosaccharides” (Chr. Hansen A/S, priority 2017, dated 2026).
